Laboratory results taken from the supplement of paper PMC10567573.
± gives the standard deviation.

Experiment: protein stability index of a GFP-peptide fusion (GPS, HEK-293T) (PSI 1-6); higher = more stable
Conditions: c terminus: a fixed tail appended
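Note: 24-mer peptide tiles fused after GFP, lentivirally expressed, FACS-sorted into six equal bins by GFP/DsRed ratio, decoded by Illumina sequencing, PSI is the read-weighted mean bin number.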

Sequence | protein stability index (treatment: DMSO) | protein stability index (treatment: MLN4924 1 uM, 8 h)
KEEQRDYVFYLAVGNYRLKEYEKA [FIS1] | 2.39 ± 0.43 | 2.23 ± 0.36
TLYLIVALATVSLLSLVTFTFLSA [PCDHGC5] | 3.2 ± 0.13 | 3.26 ± 0.29
DAFPVHRVMMASASDYFKAMFTGG [KLHL13] | 2.21 ± 0.38 | 2.26 ± 0.23
LIKPSRVVAILAAACLLQLDGLIQ [GMCL1] | 3.11 ± 0.32 | 2.89 ± 0.27
GVLTRKTHADMDGKRTPRGRRGWK [PSD2] | 4.47 ± 0.29 | 4.53 ± 0.29
AMLDEISLMDLAIEEGFNPVQASQ [NFE2L1] | 3.53 ± 0.39 | 3.66 ± 0.2
GAAEPITVKFANNPSQKTGQALLT [ELAVL3] | 4.1 ± 0.3 | 4.39 ± 0.055
PPMGKAFQELAGKELCAMSEEQFR [SPDEF] | 4.3 ± 0.25 | 4.4 ± 0.34
KPVVNVSYRPAYDQGGPVEILPFL [DUSP5] | 2.62 ± 0.14 | 2.66 ± 0.39
QNQVDELERKFRCQQEQLFQTRQE [LRRC45] | 5.04 ± 0.22 | 5.02 ± 0.12
WFLSKTEELNKEVASNSELVQSSR [KRT16] | 3.86 ± 0.39 | 3.96 ± 0.17
FSPSQFLNFWNKQDTLELESPSLT [MYBL2] | 2.47 ± 0.55 | 3.06 ± 0.39
NLRVLVDCILRDTSEDLRLQCDAV [TEKT4] | 2.64 ± 0.57 | 2.46 ± 0.29
QISIYGVKILEPKTKEVQHNCQLH [GULP1] | 2.58 ± 0.37 | 2.85 ± 0.39
HVINQGMAMYWGTSRWSSMEIMEA [KCNAB2] | 2.67 ± 0.53 | 2.42 ± 0.21
FPSDHLGDLGDPFHLGLEDILMEE [TFE3] | 3.82 ± 0.19 | 4.04 ± 0.4
TNGELNTDDPTAGRSNAPITAPTE [CSNK1G3] | 5.41 ± 0.15 | 5.41 ± 0.16
KFNGITEKEYKTYKENFLKRFQLT [USP39] | 3.59 ± 0.12 | 3.86 ± 0.15
QESSFRSRKIAVEDENDLEELNNG [MIA2] | 5.32 ± 0.92 | 5.48 ± 0.15
WLSSRAAAIKVNDSVPFHLGWNST [MYORG] | 1.99 ± 0.23 | 2.19 ± 0.38
PVPTGFFNMWGFGRVSKQASQPVK [WDR41] | 2.84 ± 0.25 | 2.8 ± 0.21
KHVLYVEHRHLNPDTELKRYFGAR [TCF25] | 2.29 ± 0.42 | 2.48 ± 0.36

Sequence | protein stability index (treatment: DMSO) | protein stability index (treatment: MLN4924 1 uM, 8 h)
KFTQDNLCRAQRERLASANLRVLV [TEKT4] | 2.15 ± 0.57 | 2.23 ± 0.26
LYVSLHRYDHGTFFPMGDEGASSQ [HDAC6] | 2.17 ± 0.51 | 2.31 ± 0.28
LKRSANQMGVSAKRRPKAQPTTLV [MED27] | 3.48 ± 0.17 | 3.72 ± 0.27
LSWYFLLCVNYFFYGETVADYFAT [CDS1] | 3.11 ± 0.46 | 3.51 ± 0.53
GQREPGSLSRNNSFRRNVGRVLLA [FBXO34] | 3.11 ± 0.26 | 3.46 ± 0.21
CGERLSLGLSRAQPVQSKPQKASA [PDLIM7] | 3.85 ± 0.38 | 4.06 ± 0.33
QAWVQKHHPENGEETVTMLEDVER [ZNF396] | 5.1 ± 0.32 | 5.39 ± 0.17
MKEFSNQVVGQVNVEMDATPGIDL [KRT13] | 4.58 ± 0.16 | 4.44 ± 0.27
IALGQMLSLCICGTAITSQYLAER [SLC35F2] | 3.37 ± 0.27 | 2.48 ± 0.16
IVKAMASPESGLEVRDRMLLKITI [DVL3] | 3.12 ± 0.44 | 2.9 ± 0.55
PVLAVVFIICIVIAILLYKSKPDR [PTPRD] | 2.94 ± 1.7 | 2.87 ± 0.63
YREHKSLTGTARYMSINTHLGKEQ [CSNK1G1] | 3.47 ± 0.34 | 3.27 ± 0.49
DRDKRDFVSAGAAAGVAAAFGAPI [CLCN6] | 4.12 ± 0.096 | 4.24 ± 0.19
EIDRSVENTLLNSQMVSTDNSLSS [MIA2] | 4.18 ± 0.35 | 4.67 ± 0.23
SVDGLTLSPDPEERPGAEGAPLLP [ACBD3] | 5.46 ± 0.19 | 5.54 ± 0.18
ETRRLSIGLDNGTISEFILSEDYN [WDFY2] | 3.84 ± 0.34 | 4.03 ± 0.3
EYVHSKNLIYRDVKPENFLIGRPG [CSNK1G3] | 2.79 ± 0.32 | 2.78 ± 0.32
SKAPVLTYGQPKQAPPADFIPAHV [EFHC1] | 3.93 ± 0.18 | 4.1 ± 0.25
LNIKVKLEAEIATYRRLLEDGEDF [KRT18] | 2.66 ± 0.2 | 2.5 ± 0.34
QADLELIESAHRSRIKVLETSYQQ [FBF1] | 5.22 ± 0.16 | 5.11 ± 0.12
PISLQATPATPATLSASSSAGGSR [TFE3] | 4.51 ± 0.18 | 4.87 ± 0.11
ACSEDSLFLRCSLRHKDEEEEDDD [DRICH1] | 5.32 ± 0.27 | 5.24 ± 0.16

Sequence | protein stability index (treatment: DMSO) | protein stability index (treatment: MLN4924 1 uM, 8 h)
EDQGRTRKRKQSGHSPARAGKQRM [DDIT3] | 4.96 ± 0.27 | 4.96 ± 0.089
VCDESVRKLSSAVRSGIVEYLSLV [PRIM1] | 2.34 ± 0.83 | 2.1 ± 0.3
MRGFKGDRGPKGEKGEKGDRAGDA [SCARA5] | 5.41 ± 0.25 | 5.44 ± 0.44
CFKNWDGSPVSSWILLAESNSADD [OAS1] | 3.04 ± 0.24 | 3.38 ± 0.4
RRPEVDPLPFPGPFPAGPLAVAGG [ESRRA] | 3.56 ± 0.21 | 3.71 ± 0.24
PAPQVGTQIRTITEEIRDGKVISS [KRT36] | 5.08 ± 0.2 | 5.17 ± 0.23
NDEIEEVRLQSIHTMRKISNNITL [INTS4] | 3.75 ± 0.23 | 3.69 ± 0.18
DRLLVERIFAQYMVPHNLETTERM [PDS5B] | 2.29 ± 0.31 | 2.17 ± 0.086
VGLRNTLTRIRKWIEHSKLREINF [GLT8D2] | 2.41 ± 0.3 | 1.9 ± 0.31
FRQMATALAHCHQHGLVLRDLKLC [TRIB3] | 2.21 ± 0.38 | 2.03 ± 0.3
QPLRTPRDEAIYECVASNNVGEIS [PTPRD] | 4.88 ± 0.23 | 5.13 ± 0.12
EHDRETRMQYAPDLMKRLRFALIP [KLHL14] | 2.77 ± 0.26 | 2.56 ± 0.16
SEEQFRQRSPLGGDVLHAHLDIWK [SPDEF] | 3.34 ± 0.36 | 3.27 ± 0.1
CSELNKLCQHFEAVHSGTPVTNNL [SPACA9] | 2.95 ± 0.47 | 2.97 ± 0.24
LGSSRTPETVRMVLSNMEKLFCIP [IMPA1] | 2.08 ± 0.39 | 2.2 ± 0.26
PASEKKPVPPSEGKSRLSPAGEMK [BCL2L13] | 5.28 ± 0.19 | 5.27 ± 0.084
FEFDETSFWNSSHPRGWNDHVHIL [KLHDC2] | 2.37 ± 0.64 | 2.18 ± 0.28
MTETDAFYKREMFDPAEKYKMDHR [CASP6] | 4.05 ± 0.25 | 4.1 ± 0.29
PVIKIPECPSMGTNEAACLLDNPL [RHOBTB1] | 4.33 ± 0.16 | 4.41 ± 0.24
GFGDEDTGLELIAEESNPPLQDFP [MIA2] | 5.4 ± 0.34 | 5.23 ± 0.069
TWSNQTQNIQSWSNHSWNTQTWCT [NANOGP8] | 2.27 ± 0.15 | 2.27 ± 0.26
